In experiment [1] the target is HER2 on HER2+ SK-OV-3 ovarian cancer cells (Homo sapiens, SK-OV-3 cells, UniProt P04626). Description: ELISA. In general terms: ELISA stands for enzyme-linked immunosorbent assay.
For a further experiment, the target named is Canine HER2 (Canis lupus familiaris, UniProt O18735). Description: SPR.
The target in experiment [2] is Wildtype HER2 domain IV fragment (residues 510-629 of human HER2) (Homo sapiens, UniProt P04626). Nature of the experiment: SPR. Background: Surface plasmon resonance follows binding to a sensor surface in real time, without labels.

Changes are numbered by the printed parent chain.

B1: Candidate 2 (de novo designed HCDR3, IgG1 mAb) (antibody, V domains shown)
VH: EVQLVESGGGLVQPGGSLRLSCAASGFNIKDTYIHWVRQAPGKGLEWVARIYPTNGYTRYADSVKGRFTISADTSKNTAYLQMNSLRAEDTAVYYCARYYYGFYYFDYWGQGTLVTVSS
VL: not shown
Regarding B1, the “fold change of EC50 against trastuzumab” value in experiment [1] is approximately 3 fold. The binding result with Canine HER2 is reported as “binds”.

B2: Candidate 3 (de novo designed HCDR3, IgG1 mAb) (antibody, V domains shown)
VH: B1 VH with Y99W, Y100G, Y101N, G102Y, F103Y, F106M
VL: not shown
As to B2, the binding result in experiment [2] is “binds”.

(Values after publication doi:10.1101/2023.01.08.523187 (bioRxiv, 2023).)
